Key:
purified protein [1] = substrate: O=P(O)(O)O[C@H]1O[C@H](CO)[C@@H](O)[C@H](O)[C@H]1O; test: purified protein; format: biochemical, Thermocrispum agreste; details: free enzyme, 0.01-45 mM G1P, 2 mM UTP, 3 mM MgCl2, 50 mM Hepes, pH 7.0, 50°C
purified protein [2] = substrate: O=c1ccn([C@@H]2O[C@H](COP(=O)(O)OP(=O)(O)OP(=O)(O)O)[C@@H](O)[C@H]2O)c(=O)[nH]1; test: purified protein; format: biochemical, Thermocrispum agreste; details: free enzyme, 0.05-6 mM UTP, 30 mM G1P, 3 mM MgCl2, 50 mM Hepes, pH 7.0, 50°C

B1: TaGalU (Thermocrispum agreste) (protein)
chain: MTASAEHQTFTTAIVPAAGLGTRFLPTTKSVPKELLPVVDTPAIELVADEARQAGAERLVIVTSPAKQSIAAYFRPAPELERSLEEKGKTGQLAKIRRAPELLEVEVAIQEQALGLGHAVACAEPNLGPEDDVVAVLLPDDLVLPHGILERMAKVRAEHGGSVLCAFDIPKEEISAYGVFDVSDTDDADVKRVHGMVEKPPAEQAPSTFAAAGRYLLDRAIFDALRRIEPGAGGELQLTDAVALLIQEGHPVHVVVHRGVRHDLGNPGDFLRAAVDFALQDPDYGPELRAWLTDRIARP
notes: full-length, N-terminal His10 tag (pET16bP, no cleavage mentioned), codon-optimized gene (911 bp insert), expressed in E. coli BL21(DE3) pLysS; theoretical mass 33,678 Da; hexamer of about 193 kDa by SEC; EC 2.7.7.9
Km (purified protein [1]): 440 µM | Vmax (purified protein [1]): 1110 µmol/min/mg | kcat (purified protein [1]): 598 s⁻¹ | kcat/Km (purified protein [1]): 1.36e+06 M⁻¹ s⁻¹ | Km (purified protein [2]): 150 µM | Vmax (purified protein [2]): 1700 µmol/min/mg | kcat (purified protein [2]): 914 s⁻¹ | kcat/Km (purified protein [2]): 6.09e+06 M⁻¹ s⁻¹

Source: publication PMC7343719, “Immobilization of the Highly Active UDP-Glucose Pyrophosphorylase From Thermocrispum agreste Provides a Highly Efficient Biocatalyst for the Production of UDP-Glucose” (Frontiers in Bioengineering and Biotechnology, 2020)
